Laboratory results as given in US20140057323A1, “ENHANCED CELLODEXTRIN METABOLISM” (The Board of Trustees of the University of Illinois, priority 2011, published 2014).
Substitutions are numbered along the chain they refer to. In names and notes the source's numbering stands.

How the values were obtained:
[1] = target: S. cerevisiae hexokinase Glk1 (NP_009890) (Saccharomyces cerevisiae, UniProt P17709); assay: Effect of cellobiose on activity of purified hexokinase Glk1; format: biochemical; conditions: read-out: reduction of hexokinase activity by cellobiose
Method: (§1) The amount of hexokinase activity in cell extracts was determined by coupling the production of glucose-6-phosphate to the reduction of NADP^+ by glucose-6-phosphate dehydrogenase. 10 μg of cell extract was added to 1 mL of an assay mixture consisting of 50 mM Tris-HCl [pH 8.0 at 30° C.], 13.3 mM MgCl2, 540 μM ATP, 20 μM NADP^+, 1 U S. cerevisiae glucose-6-phosphate dehydrogenase, and 112 mM glucose. The number of pmol of glucose-6-phosphate produced per second was calculated by multiplying the rate of increase at 340 nm by 1.85×10^3, a conversion that was established from a glucose-6-phosphate standard curve.
(§2) The Hxk1 (Accession: NP_116711), Hxk2 (Accession: NP_011261), and Glk1 (Accession: NP_009890) genes were expressed and purified in E. coli. First, the genes were cloned into the PmlI and XhoI restriction sites of the expression plasmid pET302. Hxk1 gene was amplified using the following primers: […]
(§3) These constructs were transformed into the BL21(DE3) strain of E. coli, and the proteins were expressed and purified using Nickel-NTA agarose beads from Qiagen following the protocol for native batch purification provided by Qiagen. […] Protein concentrations were determined by the absorbance at 280 nm using extinction coefficients of 45840 M^−1 cm^−1, 45840 M^−1 cm^−1 and 30370 M^−1 cm^−1, for Hxk1, Hxk2 and Glk1, respectively. […]

[2] = target: S. cerevisiae hexokinase Hxk1 (NP_116711) (Saccharomyces cerevisiae, UniProt P04806); assay: Effect of cellobiose on activity of purified hexokinase Hxk1; format: biochemical; conditions: Hxk1, up to 184 mM cellobiose
Method: as §1, §2, §3

[3] = target: S. cerevisiae hexokinase Hxk2 (NP_011261) (Saccharomyces cerevisiae, UniProt P04807); assay: Effect of cellobiose on activity of purified hexokinase Hxk2; format: biochemical; conditions: read-out: reduction of hexokinase activity by cellobiose
Method: as §1, §2, §3

[4] = target: T1, Neurospora crassa cellodextrin transporter CDT-1 (NCU00801), wild type, SEQ ID NO: 9, GFP-tagged, in S. cerevisiae D452-2 (Neurospora crassa, UniProt Q7SCU1); assay: Transporter kinetics, [3H]-cellobiose uptake into yeast; format: cell-based; conditions: CDT-1 WT
T1 construct: [3H]-cellobiose uptake into whole cells
T1 sequence (Q7SCU1 1-579): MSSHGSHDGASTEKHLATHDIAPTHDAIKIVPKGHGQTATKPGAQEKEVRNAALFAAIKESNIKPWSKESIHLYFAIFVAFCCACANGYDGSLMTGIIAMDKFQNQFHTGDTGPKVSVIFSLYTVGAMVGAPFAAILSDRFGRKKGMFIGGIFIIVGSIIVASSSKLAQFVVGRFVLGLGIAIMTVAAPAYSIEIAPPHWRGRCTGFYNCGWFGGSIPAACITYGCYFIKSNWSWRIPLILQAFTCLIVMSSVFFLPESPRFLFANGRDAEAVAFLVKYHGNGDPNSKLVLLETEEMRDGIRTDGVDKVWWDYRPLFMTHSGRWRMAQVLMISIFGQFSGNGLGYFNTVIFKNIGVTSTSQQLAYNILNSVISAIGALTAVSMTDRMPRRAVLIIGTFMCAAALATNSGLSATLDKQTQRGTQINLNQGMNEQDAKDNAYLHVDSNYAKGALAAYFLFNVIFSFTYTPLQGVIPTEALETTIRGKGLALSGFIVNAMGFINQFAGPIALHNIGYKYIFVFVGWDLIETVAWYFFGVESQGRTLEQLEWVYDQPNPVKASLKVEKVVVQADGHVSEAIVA
Method: (§8) Briefly, the yeast strain D452-2 transformed with mutant transporters was set-up at an OD (600 nm) of −0.2 in 50 mL of DOB-uracil and grown to an OD (600 nm) of ˜1. Cells were then harvested by centrifugation, washed 3× with 10 mLs of transport buffer (30 mM MES-NaOH [pH 5.6], 50 mM EtOH), and resuspended to a final OD (600 nm) of ˜40 in transport buffer. The GFP fluorescence of 100 μL of these cells was determined with excitation/emission wavelengths of 485/535 nm Beckman Coulter Paradigm™ plate reader. […] Reactions were stopped by spinning cells through the oil for 1 minute at 17,000 g, tubes were frozen in ethanol/dry ice, and tube-bottoms containing the cell-pellets were clipped off into 1 mL of 0.5 M NaOH. The pellets were solubilized overnight, 5 mL of Ultima Gold scintillation fluid added, and CPM determined in a Tri-Carb 2900TR scintillation counter.

[5] = substrate: OC[C@H]1O[C@@H](O[C@H]2[C@H](O)[C@@H](O)C(O)O[C@@H]2CO)[C@H](O)[C@@H](O)[C@@H]1O; assay: cells, lysate or membranes; conditions: other: CDT-1 WT, [3H]-cellobiose uptake, pH 5.6
[6] = substrate: OC[C@H]1O[C@@H](O[C@H]2[C@H](O)[C@@H](O)C(O)O[C@@H]2CO)[C@H](O)[C@@H](O)[C@@H]1O; assay: Transporter kinetics, [3H]-cellobiose uptake into yeast; format: cell-based, Neurospora crassa; conditions: pH 5.6
Method: as §8

[7] = substrate: OC[C@H]1O[C@@H](O[C@H]2[C@H](O)[C@@H](O)C(O)O[C@@H]2CO)[C@H](O)[C@@H](O)[C@@H]1O; assay: Kinetic parameters of purified GH1-1 (glucose oxidase/peroxidase assay); format: biochemical, Neurospora crassa; conditions: other: GH1-1, glucose production from cellobiose, 50 mM phosphate pH 6.0
Method: (§4) The amount of cellobiase activity in cell extracts was determined by the Glucose oxidase/Peroxidase assay. […] The number of pmol of glucose produced per second was calculated by multiplying the rate of increase at 436 nm by 1.17×10^3, a conversion that was established from a glucose standard curve.
(§5) GH1-1 and SdCBP were purified directly from the D452-2 yeast strains described above. 200 mL cultures in DOB-uracil-leucine were grown to an OD (600 nm) of ˜7. Cells were pelleted and washed 1× with 40 mL ddH2O. Cell pellets were resuspended in 25 mL of 50 mM NaH2PO4 [pH 8.0], 300 mM NaCl, 10 mM imidazole, 2 mM DTT, and Roche Complete EDTA-free Protease Inhibitor Cocktail, and lysed by passage through an Avestin EmulsiFlex C-3 homogenizer at 20,000 P.S.I. Cell debris was then pelleted, and proteins purified using Nickel-NTA agarose beads from Qiagen following the protocol for native batch purification provided by Qiagen. Protein eluted from the beads was buffer exchanged into a buffer consisting of phosphate buffered saline (PBS), 10% glycerol, and 2 mM DTT, snap-frozen in (1)N2 and stored at −80° C. Protein concentrations were determined by the absorbance at 280 nm using extinction coefficients of 108750 M^−1 cm^−1 and 178540 M^−1 cm^−1, for GH1-1 and SdCBP, respectively.
(§6) A 1 mL assay included either […] of GH1-1 or […] SdCBP.
(§7) To assay the transglycosylation activity of GH1-1 and SdCBP, both enzymes were enriched from cell extracts by IMAC. […] The kinetic parameters of the enriched proteins were also measured, and the results are depicted in FIG. 12 and quantified in Table 12.

[8] = substrate: OC[C@H]1O[C@@H](O[C@H]2[C@H](O)[C@@H](O)C(O)O[C@@H]2CO)[C@H](O)[C@@H](O)[C@@H]1O; assay: Kinetic parameters of purified SdCBP (glucose oxidase/peroxidase assay); format: biochemical, Saccharophagus degradans; conditions: other: SdCBP, glucose production from cellobiose, 50 mM phosphate pH 6.0
Method: as §4, §5, §6, §7

Chain of S. cerevisiae hexokinase Hxk2 (NP_011261) (P04807 whole entry): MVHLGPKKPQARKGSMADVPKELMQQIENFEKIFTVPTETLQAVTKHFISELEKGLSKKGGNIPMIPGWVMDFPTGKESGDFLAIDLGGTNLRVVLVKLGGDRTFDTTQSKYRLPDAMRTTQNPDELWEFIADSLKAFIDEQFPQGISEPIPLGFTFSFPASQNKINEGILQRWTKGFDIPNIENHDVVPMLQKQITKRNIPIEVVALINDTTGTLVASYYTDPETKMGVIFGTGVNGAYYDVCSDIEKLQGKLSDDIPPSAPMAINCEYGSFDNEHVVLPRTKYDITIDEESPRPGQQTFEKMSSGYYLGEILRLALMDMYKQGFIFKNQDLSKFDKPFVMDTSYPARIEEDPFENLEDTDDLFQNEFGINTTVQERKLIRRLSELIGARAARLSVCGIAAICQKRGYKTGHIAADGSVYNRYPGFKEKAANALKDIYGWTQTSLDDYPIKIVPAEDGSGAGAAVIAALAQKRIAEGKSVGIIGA
Chain of S. cerevisiae hexokinase Hxk1 (NP_116711) (P04806 whole entry): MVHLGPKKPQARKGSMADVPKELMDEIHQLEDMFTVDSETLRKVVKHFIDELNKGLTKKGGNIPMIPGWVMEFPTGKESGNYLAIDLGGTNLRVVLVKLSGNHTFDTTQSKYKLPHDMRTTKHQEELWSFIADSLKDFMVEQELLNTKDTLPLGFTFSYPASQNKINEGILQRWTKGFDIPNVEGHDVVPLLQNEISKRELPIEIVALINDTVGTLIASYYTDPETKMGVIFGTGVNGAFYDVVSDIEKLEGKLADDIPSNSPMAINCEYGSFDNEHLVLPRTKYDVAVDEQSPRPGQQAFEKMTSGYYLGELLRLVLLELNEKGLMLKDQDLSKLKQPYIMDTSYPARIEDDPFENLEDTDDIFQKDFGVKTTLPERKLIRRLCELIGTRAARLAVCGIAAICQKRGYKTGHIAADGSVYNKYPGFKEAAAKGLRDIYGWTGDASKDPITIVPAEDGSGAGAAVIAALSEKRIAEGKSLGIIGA
Chain of S. cerevisiae hexokinase Glk1 (NP_009890) (P17709 whole entry): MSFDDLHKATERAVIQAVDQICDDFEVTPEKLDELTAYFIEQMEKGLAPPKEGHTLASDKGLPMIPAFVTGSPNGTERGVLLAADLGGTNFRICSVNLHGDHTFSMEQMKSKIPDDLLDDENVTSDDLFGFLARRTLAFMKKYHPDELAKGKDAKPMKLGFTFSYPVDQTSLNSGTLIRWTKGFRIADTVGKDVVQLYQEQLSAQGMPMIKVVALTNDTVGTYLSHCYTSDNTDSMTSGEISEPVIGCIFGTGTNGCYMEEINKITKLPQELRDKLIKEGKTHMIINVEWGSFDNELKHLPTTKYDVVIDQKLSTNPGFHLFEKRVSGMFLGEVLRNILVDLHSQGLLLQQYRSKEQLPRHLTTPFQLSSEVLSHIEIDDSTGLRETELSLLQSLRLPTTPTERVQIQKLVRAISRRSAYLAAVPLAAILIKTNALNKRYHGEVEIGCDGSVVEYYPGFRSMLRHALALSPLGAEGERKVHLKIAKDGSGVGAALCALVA

OC[C@H]1O[C@@H](O[C@H]2[C@H](O)[C@@H](O)C(O)O[C@@H]2CO)[C@H](O)[C@@H](O)[C@@H]1O (some centres unmarked) [cellobiose]
inhibition at 184000 µM [1]: ~20%
effect of cellobiose on hexokinase activity [2]: unaffected
inhibition at 184000 µM [3]: ~20%
Vmax [4]: 0.60 ± 0.03 µmol/s

B1: Neurospora crassa cellodextrin transporter CDT-1 (NCU00801), wild type, SEQ ID NO: 9, GFP-tagged, in S. cerevisiae D452-2 (Neurospora crassa OR74A) (protein)
chain: T1 sequence (Q7SCU1 1-579)
Km [5]: 7.6 ± 1.5 µM

B2: Neurospora crassa cellodextrin transporter CDT-1 (SEQ ID NO: 9) variant F213L, GFP-tagged, in S. cerevisiae D452-2 (Neurospora crassa OR74A; F213L) (protein)
chain: T1 sequence (Q7SCU1 1-579) with F213L
notes: [3H]-cellobiose uptake
Km ([6]; other: CDT-1 F213L): 188.8 ± 55.3 µM

B3: Neurospora crassa cellodextrin transporter CDT-1 (SEQ ID NO: 9) variant G91A, GFP-tagged, in S. cerevisiae D452-2 (Neurospora crassa OR74A; G91A) (protein)
chain: T1 sequence (Q7SCU1 1-579) with G91A
notes: [3H]-cellobiose uptake
Km ([6]; other: CDT-1 G91A): 43.5 ± 10.1 µM

B4: Neurospora crassa cellodextrin transporter CDT-1 (SEQ ID NO: 9) variant F335A, GFP-tagged, in S. cerevisiae D452-2 (Neurospora crassa OR74A; F335A) (protein)
chain: T1 sequence (Q7SCU1 1-579) with F335A
notes: [3H]-cellobiose uptake
Km ([6]; other: CDT-1 F335A): 114.8 ± 46.4 µM

B5: Neurospora crassa β-glucosidase GH1-1 (NCU00130) (Neurospora crassa OR74A) (protein)
chain: MSLPKDFLWGFATAAYQIEGAIHADGRGPSIWDTFCNIPGKIADGSSGAVACDSYNRTKEDIDLLKSLGATAYRFSISWSRIIPVGGRNDPINQKGIDHYVKFVDDLLEAGITPFITLFHWDLPDGLDKRYGGLLNREEFPLDFEHYARTMFKAIPKCKHWITFNEPWCSSILGYNSGYFAPGHTSDRTKSPVGDSAREPWIVGHNLLIAHGRAVKVYREDFKPTQGGEIGITLNGDATLPWDPEDPLDVEACDRKIEFAISWFADPIYFGKYPDSMRKQLGDRLPEFTPEEVALVKGSNDFYGMNHYTANYIKHKKGVPPEDDFLGNLETLFYNKKGNCIGPETQSFWLRPHAQGFRDLLNWLSKRYGYPKIYVTENGTSLKGENAMPLKQIVEDDFRVKYFNDYVNAMAKAHSEDGVNVKGYLAWSLMDNFEWAEGYETRFGVTYVDYENDQKRYPKKSAKSLKPLFDSLIKKD
Km [7]: 320 µM
kcat [7]: 7 s⁻¹
kcat/Km [7]: 21900 M⁻¹ s⁻¹

B6: Saccharophagus degradans cellobiose phosphorylase SdCBP, wild type, SEQ ID NO: 12 (Saccharophagus degradans 2-40) (protein)
chain: MKFGHFDDKAREYVITDPKTPYPWINYLGNEDFFSLVSNTGGGYSFYKDAKFRRLTRYRYNNVPVDNGGKYFYINDSGDVWSPGWKPVKAELDAYSCAHGLSYTRITGERNGIQAEVLSFIPLGTWAEIQKVSLKNTSGATKKFKLFSFAEWCLWNAEDDMTNFQRNFSTGEVEVEDSVIYHKTEFKERRNHYAFYSVNAPIQGFDTDRDKWKGLYNDFDKPDAVFEGEPRNSEAHGWSPIASHYLEVELAPGESKDLIFVLGYIEVAPENKWESKGVINKSPAKELIARFDSVEKVDAELTKLADYWANLLSTYSVESGDEKLDRMVNIWNQYQCMVTFNMSRSASFFESGIGRGMGFRDSNQDLIGFVHQVPERARERIIDIASTQFEDGSAYHQYQPLTKRGNNAIGGNFNDDPLWLILSTTDYIKETGDFSILEEQVPYDNDASKATSHFEHLKRSFYHTVNNLGPHGLPLIGRADWNDCLNLNCFSEDPNESFQTTGNKTGRTAESLMIAGLFVLYGNEFVKLCREIGQDGEAAEAQAHIDQMVEAVKKHGWDGEWFLRAYDYYGKKVGSKENEEGKIFIESQGFCGMAGIGLEDGLVEKSMDSVKEWLDCDYGIVLQQPAFTKYYIEYGEISTYPAGYKENAGIFCHNNPWIMITETLLGRGDKAFEYYRKIAPAYLEEISDLHKVEPYAYCQMIAGKDAYLPGEGKNSWLTGTASWNFAAITQYILGVKPDYSGLAINPCIPSSWDGFKVTRKYRGATYNIIVTNPTHVSKGVKSLTLNGNAIDGYIVPPQQAGTVCNVEVTLG
Km [8]: 650 µM
kcat [8]: 7 s⁻¹
kcat/Km [8]: 11500 M⁻¹ s⁻¹
